The record followed here is US20250002610A1 (Genmab, published 2025).

The target in test [1] is T1, His-tagged recombinant Cynomolgus FAPα (Acro Biosystems, Cat #FAP-C52H3-100ug) (cynomolgus monkey, UniProt A0A2K5VGF4 26-760).
T1 construct: Bought reagent; also called recombinant cynomolgus monkey FAPα; not shown: His tag of the vendor's construct (Acro Biosystems FAP-C52H3)
T1 sequence: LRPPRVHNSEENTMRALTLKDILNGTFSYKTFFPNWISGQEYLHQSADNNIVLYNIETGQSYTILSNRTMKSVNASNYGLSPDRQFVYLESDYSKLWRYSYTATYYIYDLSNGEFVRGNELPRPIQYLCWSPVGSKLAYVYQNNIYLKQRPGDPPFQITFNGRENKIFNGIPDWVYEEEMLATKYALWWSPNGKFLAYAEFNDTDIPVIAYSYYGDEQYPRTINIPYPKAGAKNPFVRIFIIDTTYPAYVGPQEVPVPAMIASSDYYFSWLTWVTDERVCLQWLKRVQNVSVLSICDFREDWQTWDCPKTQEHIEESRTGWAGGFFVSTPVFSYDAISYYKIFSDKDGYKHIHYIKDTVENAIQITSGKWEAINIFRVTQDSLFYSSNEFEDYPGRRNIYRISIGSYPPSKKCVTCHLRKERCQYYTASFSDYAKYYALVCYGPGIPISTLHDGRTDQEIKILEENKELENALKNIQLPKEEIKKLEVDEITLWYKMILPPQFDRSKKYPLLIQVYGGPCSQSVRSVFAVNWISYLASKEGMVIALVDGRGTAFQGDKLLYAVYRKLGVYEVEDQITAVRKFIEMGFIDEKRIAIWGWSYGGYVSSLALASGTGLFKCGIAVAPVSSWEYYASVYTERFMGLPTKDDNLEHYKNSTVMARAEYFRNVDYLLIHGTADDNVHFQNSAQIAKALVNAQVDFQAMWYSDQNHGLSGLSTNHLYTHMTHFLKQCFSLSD
Kind of test: BLI (Octet), antigen immobilized on AR2G sensors, average of three experiments. How it is done: (§1) Experiments were carried out while shaking at 1,000 RPM at 30° C. Amine Reactive 2nd Generation (AR2G) biosensors (Sartorius, Cat #18-5092) were activated by reaction with 20 mM EDC (N-(3-Dimethylaminopropyl)-N′-ethylcarbodiimide hydrochloride) (Sigma-Aldrich, Cat #03449) and 10 mM s-NHS (N-hydroxysulfosuccinimide sodium salt) (Sigma-Aldrich, Cat #56485) for 300 s. The activated AR2G sensors were loaded with 2.5 μg/mL His-tagged recombinant Human FAPα (Acro Biosystems, Cat #FAP-H5244-100ug) in 10 mM Sodium Acetate pH 5.0 (Sartorius, Cat #18-1069) or 2.5 μg/mL His-tagged recombinant Cynomolgus FAPα (Acro Biosystems, Cat #FAP-C52H3-100ug) in 10 mM Sodium Acetate pH 5.0 for 600 s and quenched with 1 M ethanolamine pH 8.5 (Sartorius Cat #18-1071) for 300 s. After a baseline measurement in Sample Diluent (1000 s; Sartorius, Cat #18-1104), the association (100 s) and dissociation (4,000 s) of functionally monovalent antibody was determined using a concentration range of 0.78-800 nM with two-fold dilution steps in Sample Diluent. The molecular mass of the antibodies used for the calculations was calculated from the sequences.
(§2) The Y-axis was aligned to the last 10 s of the baseline; Interstep Correction alignment to dissociation and Savitzky-Golay filtering were applied. Data traces with a response <0.05 nm were excluded from analysis. […] The data were fitted with the 1:1 Global Full fit model using a window of interest for the association of 100 s and dissociation time set 4,000 s.
(In general: BLI is a label-free optical method that tracks binding on a fibre tip over time.)

Test [2] concerns the target T2, His-tagged recombinant Human FAPα (Acro Biosystems, Cat #FAP-H5244-100ug) (human, UniProt Q12884 26-760).
T2 construct: Bought reagent; not shown: His tag
T2 sequence (looked up): T1 sequence with P4S, F236V, D392E
Described as above. How it is done:
as §1, §2

Test [3] addresses human DR4 with death domain deletion on ExpiCHO-S cells (human). Kind of test: flow cytometry, ExpiCHO-S cells expressing human DR4, n = 1. How it is done:
Binding of BisG1-FAPα-FERL/DR4-FERR, BisG1-DR4-FEAL/b12-FEAR and IgG1-DR4-FERR to DR4 of various species commonly used for nonclinical toxicology studies was assessed by flow cytometry using ExpiCHO-S cells transiently expressing DR4 from different animal species. In contrast to other species, rodents only express one DR which has highest homology with human DR5. Therefore, ExpiCHO-S cells transiently expressing rat and mouse DR protein were used instead. All DR constructs lack the intracellular DD to avoid apoptosis of transfected cells upon DR(4) activation. IgG1-b12 was used as negative control.
For orientation: In flow cytometry, cells or beads pass a laser one at a time.

Numbering of substitutions follows the chain as printed.

B1: BisG1-FAPα-FERL/DR4-FERR (bispecific antibody, human IgG1, kappa, lambda)
heavy 1: EVQLLESGGGLVQPGGSPRLSCEASGFTFSSYALSWVRQAPGKGLEWVSAISGSGGGRYYADSVKGRFTISRDNSKNTLFLQMNSLRAEDTAVYYCAKEGYSSSGTYWDHWGQGTLVTVSSASTKGPSVFPLAPSSKSTSGGTAALGCLVKDYFPEPVTVSWNSGALTSGVHTFPAVLQSSGLYSLSSVVTVPSSSLGTQTYICNVNHKPSNTKVDKRVEPKSCDKTHTCPPCPAPEFERGPSVFLFPPKPKDTLMISRTPEVTCVVVDVSHEDPEVKFNWYVDGVEVHNAKTKPREEQYNSTYRVVSVLTVLHQDWLNGKEYKCKVSNKALPAPIEKTISKAKGQPREPQVYTLPPSREEMTKNQVSLTCLVKGFYPSDIAVEWESNGQPENNYKTTPPVLDSDGSFLLYSKLTVDKSRWQQGNVFSCSVMHEALHNHYTQKSLSLSPG
light 1: AIQMTQSPSSVSASVGDRVTITCRASQGVSSWLAWYQQKPGRAPKLLIYVASTLQSGVPSRFSGSGSGTDFTLTINSLQPEDFATYYCQQANSFPPTFGQGTRLEMKRTVAAPSVFIFPPSDEQLKSGTASVVCLLNNFYPREAKVQWKVDNALQSGNSQESVTEQDSKDSTYSLSSTLTLSKADYEKHKVYACEVTHQGLSSPVTKSFNRGEC
heavy 2: QVQLQESGPGLVKPSGTLSLTCAVSGGSISSYSWWSWIRQPPGKGLEWIGELYHSGSTNYNPSLKSRVTISVDKSKNQFSLKLRSVTAADTAVYYCVRGVATIDYWGQGTLVTVSSASTKGPSVFPLAPSSKSTSGGTAALGCLVKDYFPEPVTVSWNSGALTSGVHTFPAVLQSSGLYSLSSVVTVPSSSLGTQTYICNVNHKPSNTKVDKRVEPKSCDKTHTCPPCPAPEFERGPSVFLFPPKPKDTLMISRTPEVTCVVVDVSHEDPEVKFNWYVDGVEVHNAKTKPREEQYNSTYRVVSVLTVLHQDWLNGKEYKCKVSNKALPAPIEKTISKAKGQPREPQVYTLPPSREEMTKNQVSLTCLVKGFYPSDIAVEWESNGQPENNYKTTPPVLDSDGSFFLYSRLTVDKSRWQQGNVFSCSVMHEALHNHYTQKSLSLSPG
light 2: QSALTQPPSASGSPGQSVTISCTGTSSDVGGYNFVSWYQQDPGKAPKLLIYEVTKRPSGVPDRFSGSKSGNTASLTVSGLQAEDEADYYCSSYAGSNNVMFGGGTKLTVLGQPKAAPSVTLFPPSSEELQANKATLVCLISDFYPGAVTVAWKADSSPVKAGVETTTPSKQSNNKYAASSYLSLTPEQWKSHRSYSCQVTHEGSTVEKTVAPTECS
notes: Human IgG1 bispecific made by controlled Fab-arm exchange of IgG1-FAPα-FERL and IgG1-DR4-FERR; monovalent for FAPα and for DR4; also called GEN1057
In the case of B1, in test [1], the equilibrium dissociation constant (Kd) – broadly, the constant that tells how readily two partners part at equilibrium – stood at 0.037 nM; the dissociation rate constant (koff) – broadly, the first-order rate constant of dissociation – amounted to 2.8e-05 s⁻¹; the association rate constant (kon) (in general, the second-order rate constant of association) came out at 770000 M⁻¹ s⁻¹. In addition, in test [2], the dissociation constant (Kd) came out at 0.026 nM, the koff was 3e-05 s⁻¹ and the association rate constant (kon) turned out to be 1.1e+06 M⁻¹ s⁻¹. The EC50 (as a rule, the concentration giving half of the maximal effect) in test [3] was 1 mg/L.

B2: BisG1-FAPα-FERL/b12-FERR (bispecific antibody, human IgG1, kappa)
heavy 1: B1 heavy 1
light 1: B1 light 1
heavy 2: QVQLVQSGAEVKKPGASVKVSCQASGYRFSNFVIHWVRQAPGQRFEWMGWINPYNGNKEFSAKFQDRVTFTADTSANTAYMELRSLRSADTAVYYCARVGPYSWDDSPQDNYYMDVWGKGTTVIVSSASTKGPSVFPLAPSSKSTSGGTAALGCLVKDYFPEPVTVSWNSGALTSGVHTFPAVLQSSGLYSLSSVVTVPSSSLGTQTYICNVNHKPSNTKVDKRVEPKSCDKTHTCPPCPAPEFERGPSVFLFPPKPKDTLMISRTPEVTCVVVDVSHEDPEVKFNWYVDGVEVHNAKTKPREEQYNSTYRVVSVLTVLHQDWLNGKEYKCKVSNKALPAPIEKTISKAKGQPREPQVYTLPPSREEMTKNQVSLTCLVKGFYPSDIAVEWESNGQPENNYKTTPPVLDSDGSFFLYSRLTVDKSRWQQGNVFSCSVMHEALHNHYTQKSLSLSPG
light 2: EIVLTQSPGTLSLSPGERATFSCRSSHSIRSRRVAWYQHKPGQAPRLVIHGVSNRASGISDRFSGSGSGTDFTLTITRVEPEDFALYYCQVYGASSYTFGQGTKLERKRTVAAPSVFIFPPSDEQLKSGTASVVCLLNNFYPREAKVQWKVDNALQSGNSQESVTEQDSKDSTYSLSSTLTLSKADYEKHKVYACEVTHQGLSSPVTKSFNRGEC
In the case of B2, in test [1], the Kd came out at 0.034 nM, the koff was 2.5e-05 s⁻¹ and the kon turned out to be 750000 M⁻¹ s⁻¹. In addition, in test [2], the Kd is 0.017 nM, the koff was 2.1e-05 s⁻¹ and the kon is 1.2e+06 M⁻¹ s⁻¹.

B3: IgG1-DR4-FERR (antibody, V domains shown)
VH: QVQLQESGPGLVKPSGTLSLTCAVSGGSISSYSWWSWIRQPPGKGLEWIGELYHSGSTNYNPSLKSRVTISVDKSKNQFSLKLRSVTAADTAVYYCVRGVATIDYWGQGTLVTVSS
VL: QSALTQPPSASGSPGQSVTISCTGTSSDVGGYNFVSWYQQDPGKAPKLLIYEVTKRPSGVPDRFSGSKSGNTASLTVSGLQAEDEADYYCSSYAGSNNVMFGGGTKLTVLG
notes: Bivalent monoclonal IgG1 lambda
For the molecule B3, the EC50 in test [3] amounted to 0.33 mg/L.
